The supplement of paper PMC10065799, “High-throughput profiling of sequence recognition by tyrosine kinases and SH2 domains using bacterial peptide display” (eLife, 2023)

Assays:
AncSZ = experiment: phosphorylation enrichment, bacterial display (enrichment ratio); higher = better substrate or ligand; peptides without Tyr show the background
EPHB1 = EPHB1 (UniProt P54762); experiment: as above
EPHB2 = EPHB2 (UniProt P29323); experiment: as above
FGFR1 = FGFR1 (UniProt P11362); experiment: as above
FGFR3 = FGFR3 (UniProt P22607); experiment: as above
Fer (mouse) = experiment: as above
Fes = Fes (UniProt P07332); experiment: as above
Fyn = Fyn (UniProt P06241); experiment: as above
Hck = Hck (UniProt P08631); experiment: as above
Jak2 = Jak2 (UniProt O60674); experiment: as above
MERTK = MERTK (UniProt Q12866); experiment: as above
c-Abl (mouse) = experiment: as above
c-Src = experiment: as above
Grb2 SH2 = Grb2 SH2 (UniProt P62993); experiment: SH2 binding enrichment of the phosphorylated peptide, bacterial display (enrichment ratio); higher = better substrate or ligand; peptides without Tyr show the background
SHP2-C SH2 = experiment: as above
c-Src SH2 = experiment: as above
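Throughout, for SH2 binding enrichment of the phosphorylated peptide, bacterial display: peptide library displayed on the E. coli surface as eCPX fusions, selected cells deep-sequenced, score is each peptide's frequency after selection divided by its frequency in the input.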
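Throughout, for phosphorylation enrichment, bacterial display: 11-residue human phosphosite peptides and single-mutation variants displayed on the E. coli surface, counted by deep sequencing, each peptide's frequency after selection divided by its frequency in the unselected input library; frequency after pTyr selection over input frequency; kinase dosed for 20-30% of maximal phosphorylation in three min.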

FGFR3, sequence (P22607 whole entry, looked up): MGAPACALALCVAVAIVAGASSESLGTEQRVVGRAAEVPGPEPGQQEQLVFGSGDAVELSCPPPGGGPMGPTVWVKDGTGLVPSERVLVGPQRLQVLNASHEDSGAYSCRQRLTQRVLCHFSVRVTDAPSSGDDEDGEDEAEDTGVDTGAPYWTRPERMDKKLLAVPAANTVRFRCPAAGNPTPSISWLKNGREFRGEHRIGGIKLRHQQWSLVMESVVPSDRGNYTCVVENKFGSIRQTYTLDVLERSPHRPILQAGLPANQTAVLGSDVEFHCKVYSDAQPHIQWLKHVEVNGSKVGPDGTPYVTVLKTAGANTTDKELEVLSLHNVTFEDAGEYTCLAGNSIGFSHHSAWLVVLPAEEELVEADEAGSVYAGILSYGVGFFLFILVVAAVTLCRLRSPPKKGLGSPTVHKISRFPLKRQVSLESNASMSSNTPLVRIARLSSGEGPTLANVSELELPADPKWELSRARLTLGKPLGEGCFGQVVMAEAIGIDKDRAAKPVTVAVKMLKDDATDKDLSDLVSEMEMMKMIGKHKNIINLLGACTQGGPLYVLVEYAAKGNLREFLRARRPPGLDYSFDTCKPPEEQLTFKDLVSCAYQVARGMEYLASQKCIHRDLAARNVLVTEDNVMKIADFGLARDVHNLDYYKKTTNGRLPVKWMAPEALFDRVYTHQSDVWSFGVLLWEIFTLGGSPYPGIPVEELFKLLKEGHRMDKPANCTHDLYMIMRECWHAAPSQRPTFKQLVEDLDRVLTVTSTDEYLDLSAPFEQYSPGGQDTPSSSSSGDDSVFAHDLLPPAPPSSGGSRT
EPHB2, sequence (P29323 whole entry, looked up): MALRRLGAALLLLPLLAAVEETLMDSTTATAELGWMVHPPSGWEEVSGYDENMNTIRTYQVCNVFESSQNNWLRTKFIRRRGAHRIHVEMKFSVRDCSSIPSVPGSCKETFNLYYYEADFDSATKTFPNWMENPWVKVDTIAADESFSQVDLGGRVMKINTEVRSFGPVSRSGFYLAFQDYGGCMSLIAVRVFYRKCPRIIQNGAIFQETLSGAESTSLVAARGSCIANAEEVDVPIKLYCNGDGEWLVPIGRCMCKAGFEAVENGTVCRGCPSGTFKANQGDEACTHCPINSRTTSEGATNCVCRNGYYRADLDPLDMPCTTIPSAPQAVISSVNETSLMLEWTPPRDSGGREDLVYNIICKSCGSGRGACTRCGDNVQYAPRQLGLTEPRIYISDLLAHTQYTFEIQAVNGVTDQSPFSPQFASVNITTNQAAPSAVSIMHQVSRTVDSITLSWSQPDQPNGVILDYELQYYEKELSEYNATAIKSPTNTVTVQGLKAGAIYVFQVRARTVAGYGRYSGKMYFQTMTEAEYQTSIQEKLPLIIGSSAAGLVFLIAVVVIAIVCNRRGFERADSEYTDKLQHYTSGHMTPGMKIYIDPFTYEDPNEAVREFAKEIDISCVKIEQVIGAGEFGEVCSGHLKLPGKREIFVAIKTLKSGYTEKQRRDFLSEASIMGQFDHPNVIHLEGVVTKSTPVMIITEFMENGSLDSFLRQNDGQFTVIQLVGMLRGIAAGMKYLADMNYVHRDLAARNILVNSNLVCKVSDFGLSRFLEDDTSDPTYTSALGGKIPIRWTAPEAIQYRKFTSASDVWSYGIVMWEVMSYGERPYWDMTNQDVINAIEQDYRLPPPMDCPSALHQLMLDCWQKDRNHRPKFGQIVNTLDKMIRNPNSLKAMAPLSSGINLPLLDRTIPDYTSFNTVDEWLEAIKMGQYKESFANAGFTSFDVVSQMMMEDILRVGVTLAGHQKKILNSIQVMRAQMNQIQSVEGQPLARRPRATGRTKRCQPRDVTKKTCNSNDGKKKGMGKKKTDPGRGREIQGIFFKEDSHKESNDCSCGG
Fyn, sequence (P06241 whole entry, looked up): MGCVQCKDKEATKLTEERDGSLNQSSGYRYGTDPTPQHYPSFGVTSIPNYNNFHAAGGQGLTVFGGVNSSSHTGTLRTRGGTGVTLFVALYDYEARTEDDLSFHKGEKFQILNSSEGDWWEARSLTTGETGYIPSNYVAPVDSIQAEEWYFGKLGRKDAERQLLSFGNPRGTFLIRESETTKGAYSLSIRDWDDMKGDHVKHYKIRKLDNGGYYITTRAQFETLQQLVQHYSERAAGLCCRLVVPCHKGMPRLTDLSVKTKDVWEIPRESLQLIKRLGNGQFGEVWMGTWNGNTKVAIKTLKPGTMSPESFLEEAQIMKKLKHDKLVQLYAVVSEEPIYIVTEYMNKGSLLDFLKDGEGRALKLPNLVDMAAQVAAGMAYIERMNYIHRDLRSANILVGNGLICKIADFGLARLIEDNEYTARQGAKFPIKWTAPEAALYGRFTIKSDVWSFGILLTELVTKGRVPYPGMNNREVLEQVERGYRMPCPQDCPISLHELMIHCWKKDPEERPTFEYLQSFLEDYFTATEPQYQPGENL
EPHB1, sequence (P54762 whole entry, looked up): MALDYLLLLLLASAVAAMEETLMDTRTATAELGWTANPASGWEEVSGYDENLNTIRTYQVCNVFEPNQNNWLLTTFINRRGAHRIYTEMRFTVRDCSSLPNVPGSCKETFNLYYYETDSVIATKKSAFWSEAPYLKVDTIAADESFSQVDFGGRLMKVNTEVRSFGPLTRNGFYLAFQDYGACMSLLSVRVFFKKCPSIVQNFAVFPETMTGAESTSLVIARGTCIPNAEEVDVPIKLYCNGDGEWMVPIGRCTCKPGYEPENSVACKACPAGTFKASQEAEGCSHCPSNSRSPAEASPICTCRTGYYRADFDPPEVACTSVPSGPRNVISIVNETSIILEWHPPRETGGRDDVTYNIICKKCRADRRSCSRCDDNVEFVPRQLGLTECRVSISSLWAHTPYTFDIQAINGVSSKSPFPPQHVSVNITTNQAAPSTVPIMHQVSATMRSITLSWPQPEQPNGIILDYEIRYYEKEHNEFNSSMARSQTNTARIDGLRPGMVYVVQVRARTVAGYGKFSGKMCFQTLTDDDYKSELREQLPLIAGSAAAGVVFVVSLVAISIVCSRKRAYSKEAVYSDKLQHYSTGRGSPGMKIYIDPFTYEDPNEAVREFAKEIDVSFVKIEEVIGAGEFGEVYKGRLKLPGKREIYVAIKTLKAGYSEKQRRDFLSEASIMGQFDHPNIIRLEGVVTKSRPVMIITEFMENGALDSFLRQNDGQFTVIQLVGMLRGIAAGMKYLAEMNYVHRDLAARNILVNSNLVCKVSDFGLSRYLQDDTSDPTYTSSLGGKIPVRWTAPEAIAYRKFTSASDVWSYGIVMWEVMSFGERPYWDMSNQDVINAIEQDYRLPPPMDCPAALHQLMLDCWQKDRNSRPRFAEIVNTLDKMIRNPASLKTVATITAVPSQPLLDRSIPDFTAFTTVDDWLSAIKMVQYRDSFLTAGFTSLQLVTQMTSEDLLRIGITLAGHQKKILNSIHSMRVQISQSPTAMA
FGFR1, sequence (P11362 whole entry, looked up): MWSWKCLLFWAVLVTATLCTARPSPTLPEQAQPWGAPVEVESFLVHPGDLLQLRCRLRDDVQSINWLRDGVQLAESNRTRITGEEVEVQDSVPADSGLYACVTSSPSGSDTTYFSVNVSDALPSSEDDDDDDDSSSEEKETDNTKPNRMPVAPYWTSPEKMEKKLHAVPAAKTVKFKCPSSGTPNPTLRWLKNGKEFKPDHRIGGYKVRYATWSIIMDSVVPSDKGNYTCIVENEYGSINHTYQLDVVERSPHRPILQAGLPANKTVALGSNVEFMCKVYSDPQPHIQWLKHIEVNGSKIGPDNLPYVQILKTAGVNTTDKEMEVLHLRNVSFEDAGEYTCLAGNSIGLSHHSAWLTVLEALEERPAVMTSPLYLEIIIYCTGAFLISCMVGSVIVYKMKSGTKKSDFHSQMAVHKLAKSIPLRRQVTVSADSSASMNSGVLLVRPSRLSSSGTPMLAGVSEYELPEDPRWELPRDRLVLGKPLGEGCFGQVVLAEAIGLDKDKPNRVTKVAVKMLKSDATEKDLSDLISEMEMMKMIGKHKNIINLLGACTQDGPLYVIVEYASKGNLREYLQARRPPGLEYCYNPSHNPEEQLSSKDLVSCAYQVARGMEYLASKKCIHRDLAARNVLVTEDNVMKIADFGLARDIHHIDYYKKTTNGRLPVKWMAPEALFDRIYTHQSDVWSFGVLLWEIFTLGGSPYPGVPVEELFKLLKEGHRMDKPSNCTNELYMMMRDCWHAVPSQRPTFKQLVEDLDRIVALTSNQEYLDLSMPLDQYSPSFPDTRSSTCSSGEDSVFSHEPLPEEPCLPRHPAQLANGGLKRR
Fes, sequence (P07332 whole entry, looked up): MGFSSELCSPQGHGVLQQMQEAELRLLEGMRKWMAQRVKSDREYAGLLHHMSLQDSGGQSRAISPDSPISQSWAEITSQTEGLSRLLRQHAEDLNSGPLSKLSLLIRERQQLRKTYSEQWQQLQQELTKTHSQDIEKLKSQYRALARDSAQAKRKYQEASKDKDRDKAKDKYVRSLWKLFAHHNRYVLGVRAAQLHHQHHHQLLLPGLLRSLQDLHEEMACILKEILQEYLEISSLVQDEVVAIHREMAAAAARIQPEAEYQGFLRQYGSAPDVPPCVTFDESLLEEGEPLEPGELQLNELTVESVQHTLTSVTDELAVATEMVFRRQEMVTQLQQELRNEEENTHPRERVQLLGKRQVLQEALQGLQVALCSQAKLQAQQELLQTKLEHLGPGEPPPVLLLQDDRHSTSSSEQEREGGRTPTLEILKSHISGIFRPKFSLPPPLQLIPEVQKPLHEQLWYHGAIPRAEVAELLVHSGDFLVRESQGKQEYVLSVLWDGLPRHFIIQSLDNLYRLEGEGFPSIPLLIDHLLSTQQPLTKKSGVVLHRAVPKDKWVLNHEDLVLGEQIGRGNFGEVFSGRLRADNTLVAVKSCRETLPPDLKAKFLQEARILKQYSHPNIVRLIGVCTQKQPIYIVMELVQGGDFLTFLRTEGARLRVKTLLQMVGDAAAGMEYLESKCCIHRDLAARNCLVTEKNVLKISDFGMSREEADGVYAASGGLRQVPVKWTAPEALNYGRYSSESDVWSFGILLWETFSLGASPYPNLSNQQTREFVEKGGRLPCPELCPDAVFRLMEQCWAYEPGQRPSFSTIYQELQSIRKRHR

SH2 binding enrichment (Grb2 SH2)	SH2 binding enrichment (SHP2-C SH2)	SH2 binding enrichment (c-Src SH2)	Sequence	phosphorylation enrichment (AncSZ)	phosphorylation enrichment (EPHB1)	phosphorylation enrichment (EPHB2)	phosphorylation enrichment (FGFR1)	phosphorylation enrichment (FGFR3)	phosphorylation enrichment (Fer (mouse))	phosphorylation enrichment (Fes)	phosphorylation enrichment (Fyn)	phosphorylation enrichment (Hck)	phosphorylation enrichment (Jak2)	phosphorylation enrichment (MERTK)	phosphorylation enrichment (c-Abl (mouse))	phosphorylation enrichment (c-Src)
0.89	0.859	0.753	ACVARYIFKRL [LPCAT3_Y348_W344C]	0.979	0.407	0.51	0.502	0.553	0.492	0.841	0.635	0.426	0.683	0.492	0.606	0.545
0.791	0.651	0.396	NGVSFYINLCQ [IGF2R_Y2025_YF]	1.5	1.11	0.699	0.568	1.01	0.671	2	0.452	0.567	1.92	0.478	1.16	0.472
0.897	0.956	0.77	FRDALYKFMVD [PHEX_Y250_YF]	1.15	0.768	0.602	0.626	0.962	0.676	1.37	0.525	0.559	1.23	0.763	0.834	0.582
0.749	0.752	0.561	AIIEEYLHLSD [EIF4G1_Y1253_N1257S]	1.24	0.714	0.698	0.592	0.838	0.6	1.4	0.635	0.655	1.19	0.515	0.885	0.458
0.986	0.95	1	LGRTRYQDVTG [MIPEP_Y510_H512D]	0.899	0.62	0.548	0.525	0.665	0.563	0.735	0.586	0.336	0.888	0.722	0.799	0.584
1.03	0.587	0.521	QITQVCGFFDE [PPP2CA_Y127_Y127C_YF]	1.56	0.645	0.871	0.5	1.24	0.612	1.95	0.434	0.645	1.92	0.812	1.65	0.599
0.891	1.08	8.95	WFQTKYEELQV [KRT6B_Y360_I365V_YF]	0.915	0.462	0.525	0.478	0.564	0.459	0.94	0.359	0.442	0.788	0.305	0.712	0.329
1.12	0.871	0.843	FNSLPYQVPTS [CALCOCO2_Y358]	0.942	0.464	0.504	0.431	0.578	1.36	0.63	0.467	0.56	0.611	1.34	2.56	0.561
0.819	0.544	0.437	ALTDNYMYLVI [HAGH_Y61]	1.43	9.55	8.35	8.82	6.43	3.5	1.49	0.848	1.34	2.46	3.34	0.813	1.03
1.53	1.41	1.15	GMRHGYGVRQS [JPH2_Y141]	0.451	0.38	0.373	0.355	0.405	0.328	0.556	0.369	0.36	0.457	0.384	0.668	0.326
1.27	0.944	0.573	NPQKSYFILLF [WAS_Y83_R86L_YF]	0.836	0.546	0.551	1.01	0.906	0.414	0.969	0.449	0.43	1.05	0.398	0.606	0.337
0.716	0.806	0.454	ENPLDYGSAWA [AR_Y395]	0.992	0.46	0.565	0.491	0.744	0.524	1.08	0.527	0.559	0.991	0.395	0.709	0.476
0.991	29.3	11.1	SKGYAYVHFDS [PABPC5_Y149]	1.22	0.575	0.561	0.632	0.749	0.584	1.25	0.449	0.53	1.05	0.37	0.953	0.479
1.25	0.872	2.29	RHLREYQDLLN [DES_Y388]	0.93	0.621	1.12	0.61	0.641	0.533	1.19	0.483	0.464	0.807	0.491	0.888	0.41
1.06	0.76	4.23	HNQDGYSFPSR [LDLR_Y845_YF]	1.94	0.762	0.939	0.906	1.08	0.871	1.45	0.996	0.748	1.55	1.15	1.31	1.02
0.842	0.726	0.442	EKMWTYMRSAE [GRIA4_Y695]	1.04	0.573	0.62	0.409	0.602	0.359	1.01	0.433	0.432	0.836	0.299	0.81	0.404
1.05	0.899	1.19	EQKRYYNAMKK [SCN5A_Y1495_K1493R]	0.586	0.356	0.317	0.348	0.465	0.399	0.576	0.457	0.312	0.605	0.547	0.447	0.371

SH2 binding enrichment (Grb2 SH2)	SH2 binding enrichment (SHP2-C SH2)	SH2 binding enrichment (c-Src SH2)	Sequence	phosphorylation enrichment (AncSZ)	phosphorylation enrichment (EPHB1)	phosphorylation enrichment (EPHB2)	phosphorylation enrichment (FGFR1)	phosphorylation enrichment (FGFR3)	phosphorylation enrichment (Fer (mouse))	phosphorylation enrichment (Fes)	phosphorylation enrichment (Fyn)	phosphorylation enrichment (Hck)	phosphorylation enrichment (Jak2)	phosphorylation enrichment (MERTK)	phosphorylation enrichment (c-Abl (mouse))	phosphorylation enrichment (c-Src)
0.802	0.745	0.563	FGMSTYITRED [FNDC3B_Y180_YF]	0.961	0.776	0.45	0.581	0.676	0.533	1.11	0.676	0.743	0.95	0.437	0.693	0.692
0.782	0.794	0.495	SYSGEYGSGGG [ZG16_Y30_G32S]	0.763	0.454	0.429	0.419	0.512	0.462	0.696	0.417	0.534	0.727	0.53	0.596	0.545
0.855	0.593	0.441	QEIATYRRLPE [KRT16_Y417_L421P]	0.762	0.77	0.592	0.507	0.737	0.406	0.757	0.525	0.553	0.73	0.489	0.683	0.38
0.915	0.872	0.502	DTLMEYLENPK [CYCS_Y68]	1.51	0.672	0.682	0.511	0.905	0.677	1.49	0.484	0.69	1.28	0.529	0.95	0.562
0.642	0.795	0.471	ESMNTYLQTSP [NAT1_Y208]	1	0.584	0.511	0.584	0.664	0.539	0.947	0.469	0.655	0.825	0.412	0.693	0.477
0.811	0.557	0.563	FDKPVYQKTTE [LDLR_Y828_N825K]	0.684	0.452	0.475	0.518	0.57	0.451	0.739	0.472	0.436	0.691	0.473	0.606	0.506
0.973	0.647	0.664	CDLTDYLMKIL [ACTA1_Y190_R185C]	1.39	0.791	0.75	0.476	1.02	0.541	1.7	0.478	0.587	1.13	0.416	0.83	0.394
0.962	0.878	0.677	KAIMTYVSSFF [ACTN4_Y260_YF]	0.911	0.57	0.602	0.533	0.647	0.437	0.821	0.559	0.531	0.561	0.494	0.527	0.592
0.707	0.625	0.36	QTSTDYDIRFY [CSNK2A1_Y131_L128S]	1.46	1.22	1.36	1.08	1.04	0.844	1.86	0.981	0.89	1.47	0.869	1.2	0.785
0.783	0.584	0.486	SFCFRYRCAPR [SUMF1_Y344_A348P_YF]	0.883	0.527	0.549	0.509	0.587	0.726	0.69	0.605	0.633	0.811	0.73	0.75	0.701
18.4	0.735	4.51	PYSNSYENSLI [EPOR_Y489_P488S]	1.32	0.713	0.433	1.04	0.854	0.754	1.41	0.699	0.887	0.903	0.552	1.06	0.689
0.763	0.927	0.603	VAVVQYSGMGQ [COL6A1_Y878_T881M]	0.554	0.382	0.363	0.44	0.506	0.407	0.757	0.439	0.416	0.612	0.524	0.62	0.451
0.888	0.588	0.51	VRTGIYHGGEP [PIK3CA_Y361]	0.641	0.419	0.421	0.542	0.407	0.457	0.659	0.568	0.586	0.558	0.431	0.496	0.498
1.2	1.01	1.48	LPVHFYGHVEH [PYGM_Y204]	1.68	1.33	0.889	1.54	1.66	1.9	1.74	1.58	0.935	1.63	1.07	1.26	0.803
0.797	0.509	0.569	EEEPVYKAEPE [HCLS1_Y360_E361K]	1.06	0.573	0.525	0.597	0.891	0.576	1.49	0.675	0.595	1.36	0.518	0.826	0.717
0.761	0.708	0.763	ENGPYYTSYPP [GDAP2_Y488]	1.31	0.658	1	2.7	1.89	0.707	0.83	3.58	2.14	0.703	5.54	1.33	3.52
